From paper PMC12299905, “Pathogen Enzyme-Mediated Alkoxyamine Homolysis as a Killing Mechanism of Aspergillus fumigatus” (Journal of Fungi, 2025)
Values after ≈ are worked out from the molar mass of the structure shown.

Legend:
[1] = Homolysis kinetics / stability of alkoxyamines by EPR; assay type: physicochemical; settings: for activation energy Ea of homolysis: from kd by Arrhenius law
Description: Homolysis constants were measured by Electronic Paramagnetic Resonance (EPR) on a EMX Bruker spectrometer, with O2 as the alkyl radical scavenger, as previously reported. Thermic activation led to the liberation of nitroxide: (2,2,6,6-tetramethylpiperidin-1-yl)oxyl (TEMPO). The details of the kinetic experiments in aqueous or solvent phases and the values of homolysis rate constants (kd), activation energies (Ea), and half-life times (t1/2) are reported in Supplementary Information and Data (see below).
Indeed, the activation energies of these alkoxyamines range from 121 to 140 kJ/mol with half-life times longer than 10 days (Supplementary Table S1). Moreover, the values were measured for a mixture of the two diastereoisomers. […] The solvent effect (i.e., t-BuPh) versus H2O/1-PrOH (99:1) was also investigated. […] Overall, there is no stability concern for these molecules with respect to the subsequent biological studies.
EPR kinetic figures of homolysis rate constants ( kd), activation energies ( Ea) and half-life
Molecule Solvent T (°C)a kd (s-1)b,c Ea (kJ·mol-1)d t1/2(37 °C) (days)

[2] = system: FC240 azole-resistant strain; assay: Exposure of A. fumigatus spores to alkoxyamines, azole-resistant strain; assay type: cell-based; settings: Aspergillus fumigatus
Description: (§1) Ku80 azole-susceptible strain and FC240 azole-resistant strain were kindly provided by Prof. J.-P. Latge and Dr E. Fréalle (Lille University Hospitals, Lille, France). The latter strain harbors a 34 bp tandem repeat mutation (TR34) in the cyp51A gene promoter combined with a substitution in codon L98H. The strains of A. fumigatus were used for spore preparation as previously described. Briefly, spores were grown from frozen stocks on Sabouraud + Chloramphenicol agar tubes (BioMérieux, Marcy l’Etoile, France) at 37 °C for 7 days. Next, conidia were collected by scraping and suspending in PBS containing 0.01% Tween 20 (Sigma-Aldrich®, St. Louis, MO, USA). Spore counting was performed using a Kova® hemacytometer, and aliquots of 10^6 spores were prepared.
(§2) A. fumigatus spores were exposed to various concentrations of alkoxyamines (1, 10, 100, and 1000 µM), with each concentration in triplicate. Controls were grown alone (without alkoxyamine treatment) or exposed to the antifungal voriconazole under the same experimental conditions. Briefly, the reactions were performed in well plates in a total volume of 250 μL RPMI medium. At the end of the incubation time period (48 h), the optical densities (OD600 nm) of scrapped cultures were recorded in one set of the reactions using a spectrophotometer (Thermo Fisher Scientific, Illkirch, France). […] Experiments were repeated at least three times.

[3] = system: Ku80 azole-susceptible strain; assay: Exposure of A. fumigatus spores to alkoxyamines, azole-susceptible strain; assay type: cell-based; settings: Aspergillus fumigatus
Description: as §1, §2

[4] = H2O/1-PrOH 99:1, extrapolated to 37 °C
[5] = t-BuPh/DCM 99:1, extrapolated to 37 °C
[6] = t-BuPh, mixture of two diastereoisomers

SMILES	half-life time t1/2 (37 °C) of homolysis [1, 5] [days]	activation energy Ea of homolysis ([1]; t-BuPh/DCM 99:1) [kcal/mol]	activation energy Ea of homolysis [1, 6] [kcal/mol]	also measured
CC(ON1C(C)(C)CCCC1(C)C)c1ccc(NC(=O)[C@@H]2CCCN2C(=O)[C@H](C)NC(=O)CCC(=O)O)cc1 (stereo partly shown) [VIb]	3632	32.7	–	half-life time t1/2 (37 °C) of homolysis [1, 4]: 199 days; activation energy Ea of homolysis ([1]; H2O/1-PrOH 99:1): 30.9 kcal/mol
CC(ON1C(C)(C)CCCC1(C)C)c1ccc(NC(=O)[C@@H]2CCCN2)cc1 (stereo partly shown) [compound 3]	2554	32.48	–	–
CC(ON1C(C)(C)CCCC1(C)C)c1ccc(NC(=O)[C@@H]2CCCN2C(=O)[C@H](C)NC(=O)OCC2c3ccccc3-c3ccccc32)cc1 (stereo partly shown) [4b]	–	–	33.15	–
CC(ON1C(C)(C)CCCC1(C)C)c1ccc(NC(=O)[C@@H]2CCCN2C(=O)CNC(=O)OCC2c3ccccc3-c3ccccc32)cc1 (stereo partly shown) [4a]	–	–	33.34	–
CC(ON1C(C)(C)CCCC1(C)C)c1ccc(NC(=O)[C@@H]2CCCN2C(=O)CNC(=O)CCC(=O)O)cc1 (stereo partly shown) [VIa]	1519	32.15	–	half-life time t1/2 (37 °C) of homolysis [1, 4]: 10 days; activation energy Ea of homolysis ([1]; H2O/1-PrOH 99:1): 29.06 kcal/mol
C[C@@H](c1ncncc1F)[C@](O)(Cn1cncn1)c1ccc(F)cc1F [voriconazole]	–	–	–	MIC [2]: 4 µg/mL (≈ 11.5 µM); MIC [3]: 0.25 µg/mL (≈ 0.716 µM)
CC(ON1C(C)(C)CCCC1(C)C)c1ccc(NC(=O)[C@@H]2CCCN2C(=O)OC(C)(C)C)cc1 (stereo partly shown) [compound 2]	–	–	32.93	half-life time t1/2 (37 °C) of homolysis ([1]; t-BuPh, extrapolated to 37 °C): 5395 days
